Experimental findings from publication PMC4633281 are described below.

In assay [1] the target is TamA with loop-His6 sequence (E. coli) (UniProt P0ADE4). The assay is described as follows: magnetic contrast neutron reflectometry.
Assay [2] has as its target reconstituted TAM (TamA loop-His6 with purified TamB) in a supported membrane (E. coli) (UniProt P0ADE4). The experiment in a line: magnetic contrast neutron reflectometry.
Assay [3] deals with TamA with loop-His6 sequence (E. coli) (UniProt P0ADE4). The assay is described as follows: quartz crystal microbalance with dissipation.

For the substance “Ag43, urea-denatured, purified (from UniProt P39180 53-1039) (natural protein)”, in assay [1], the surface excess of Ag43, fold over that with the complete TAM stood at 3 fold and the volume fraction of Ag43 in the membrane layer was 45%. Also, the volume fraction of Ag43 in the membrane layer in assay [2] was found to be 11%.
In assay [3], “TamB, soluble, purified from the periplasm (domain or fragment)” showed a decrease in frequency (QCM-D) of 95 Hz and a frequency response (QCM-D) of 30 Hz.
